This note sets out measurements from PMC3501478, “Structure of the Human Discs Large 1 PDZ2– Adenomatous Polyposis Coli Cytoskeletal Polarity Complex: Insight into Peptide Engagement and PDZ Clustering” (PLoS ONE, 2012).

The assay has as its target T1, human Discs Large 1 (hDlg1) PDZ2 domain, residues 310-407 (human, UniProt Q12959 310-407).
T1 construct: N-terminal gly-ser cloning artifact left on the PDZ2 domain after thrombin cleavage of GST; human Discs Large 1 (Dlg1), PDZ2 domain, residues 310-407; synthetic gene with E. coli codon usage in pGEX-2T; In the final model chain A holds residues 310-406, with R310 modelled as alanine; also called hDlg PDZ2; source: E. coli BL21 DE3 pLysS, purified (Glutathione Sepharose, thrombin cleavage, SP …)
Briefly: crystal structure; 1.4 mM Dlg1 PDZ2 incubated with 1.7 mM APC C-terminal peptide (1:1.2) in 100 mM NaCl, 25 mM Tris pH 7.0, 0.1% beta-mercaptoethanol; hanging drop, 200 mM sodium acetate, 100 mM sodium cacodylate pH 6.25, 28% PEG 8000, 20°C; space group P212121, 2.0 Å. As to conditions: both partners purified.

No end group written: not given here. TMR = tetramethyl rhodamine

T1 sequence (Q12959 other isoform, or with tags, fused parts or gaps): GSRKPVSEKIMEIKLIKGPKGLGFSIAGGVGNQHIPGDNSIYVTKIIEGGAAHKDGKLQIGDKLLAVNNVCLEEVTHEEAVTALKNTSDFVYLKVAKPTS

B1: APC C-terminal peptide RHSGSYLVTSV (residues 2833-2843) with N-terminal tetramethyl rhodamine (peptide)
peptide: {TMR}-RHSGSYLVTSV
notes: human Adenomatous Polyposis Coli (APC), C-terminal 11 residues 2833-2843 of the 2843 amino acid protein; Only residues 2838-2843 are seen in the electron density; the TMR fluorophore and the N-terminal five residues are not; also called APC peptide; TMR-APC peptide; source: synthetic peptide (Yale Keck Biotechnology Resource Laboratory), purified by HPLC
Regarding B1, the binding result is on record as “binds”.
